This is an account of results in article PMC6514982, “Disruption of Structural Disulfides of Coagulation FXIII-B Subunit; Functional Implications for a Rare Bleeding Disorder” (International Journal of Molecular Sciences, 2019).

As usually defined, the stoichiometry N is the number of molecules, sites or subunits per partner or assembly.

The data set deals with the molecule itself. The experiment in a line: native gel or EMSA; non-denaturing Native-PAGE (BN sample buffer), transfer to PVDF, Western blot with mouse anti-human FXIII-B antibody. For orientation: In EMSA bound probe runs differently from free probe, usually more slowly.

B1: recombinant wild type FXIII-B subunit (coagulation Factor XIII B subunit) (natural protein, human, UniProt P05160 21-661, looked up)
chain: EEKPCGFPHVENGRIAQYYYTFKSFYFPMSIDKKLSFFCLAGYTTESGRQEEQTTCTTEGWSPEPRCFKKCTKPDLSNGYISDVKLLYKIQENMRYGCASGYKTTGGKDEEVVQCLSDGWSSQPTCRKEHETCLAPELYNGNYSTTQKTFKVKDKVQYECATGYYTAGGKKTEEVECLTYGWSLTPKCTKLKCSSLRLIENGYFHPVKQTYEEGDVVQFFCHENYYLSGSDLIQCYNFGWYPESPVCEGRRNRCPPPPLPINSKIQTHSTTYRHGEIVHIECELNFEIHGSAEIRCEDGKWTEPPKCIEGQEKVACEEPPFIENGAANLHSKIYYNGDKVTYACKSGYLLHGSNEITCNRGKWTLPPECVENNENCKHPPVVMNGAVADGILASYATGSSVEYRCNEYYLLRGSKISRCEQGKWSSPPVCLEPCTVNVDYMNRNNIEMKWKYEGKVLHGDLIDFVCKQGYDLSPLTPLSELSVQCNRGEVKYPLCTRKESKGMCTSPPLIKHGVIISSTVDTYENGSSVEYRCFDHHFLEGSREAYCLDGMWTTPPLCLEPCTLSFTEMEKNNLLLKWDFDNRPHILHGEYIEFICRGDTYPAELYITGSILRMQCDRGQLKYPRCIPRQSTLSYQEPLRT
notes: Coagulation factor XIII B chain, human; F13B cDNA (ORF length 1986 bp) in the pEZ-M01 vector; The whole ORF was expressed; the secreted product was analysed; also called rFXIII-B; rFXIII-B2; source: HEK293T, transiently transfected, secreted into the culture medium
In the case of B1, the “stoichiometry N” value was determined as 2.
